Reference: paper PMC7300195 (Frontiers in Immunology, 2020)

How the values were obtained:
Experiment in all cases: BLI
Conditions in all cases: both partners purified
[1] = target: NiV G trimer: NiV G head domain residues 172-602 coupled to an N-terminal foldon domain (Nipah virus, Malaysia (AAK50545.1), UniProt Q9IH62)
[2] = target: hexameric NiV G: two G ectodomain headgroups linked by a foldon trimerization domain via short glycine linkers (Nipah virus, Malaysia (AAK50545.1), UniProt Q9IH62)
[3] = target: T1, NiV G ferritin 24-mer nanoparticle: NiV G ectodomain residues 172-602 linked to the C-terminus of ferritin … (Nipah virus, Malaysia (AAK50545.1), UniProt Q9IH62)
T1 construct: copies: 24

Measured: binding result

B1: m102.4 monoclonal antibody (HeV G-specific antibody), human IgG1/kappa (antibody, V domains shown)
VH: EVQVIQSGADVKKPGSSVKVSCKSSGGTFSKYAINWVRQAPGQGLEWMGGIIPILGIANYAQKFQGRVTITTDESTSTAYMELSSLRSEDTAVYYCARGWGREQLAPHPSQYYYYYYGMDVWGQGTTVTVSS
VL: EIVMTQSPGTLSLAPGERATLSCWASQSVRNNYLAWYQQKPGQAPRLVIYNGSTRATGIPDRFSGSGSGTDFTLTISRLDPEDFAVYYCQQYGNSRRVTFGGGTKVEIK
binds: all assays above
